Experimental findings from patent US20200164032A1 (WASHINGTON UNIVERSITY, published 2020) are described below.

One test concerns the target T1, human CCL2 (human, UniProt P13500 24-99).
T1 construct: also called hCCL2
The experiment in a line: SPR, R17 on CM5 chip.

Another test deals with T2, human CCL3 (human, UniProt P10147 23-92).
T2 construct: also called hCCL3
T2 sequence: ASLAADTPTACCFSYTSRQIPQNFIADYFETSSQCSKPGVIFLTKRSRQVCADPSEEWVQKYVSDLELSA
The test is described as follows: SPR, R17 on CM5 chip.

For a further test, the target named is T3, murine CCL24 (mouse, UniProt Q9JKC0 27-119).
T3 construct: also called mCCL24
T3 sequence: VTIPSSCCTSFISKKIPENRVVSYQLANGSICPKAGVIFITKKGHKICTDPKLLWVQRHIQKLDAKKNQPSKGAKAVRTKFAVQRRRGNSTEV
The experiment in a line: SPR, R17 on CM5 chip.

For another test, the target named is T4, murine CCL21 (mouse, UniProt P84444 24-133).
T4 construct: also called mCCL21
T4 sequence: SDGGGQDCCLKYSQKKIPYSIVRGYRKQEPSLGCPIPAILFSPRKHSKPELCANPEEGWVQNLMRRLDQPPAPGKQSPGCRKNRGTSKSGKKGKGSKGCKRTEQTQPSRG
The test is described as follows: SPR, R17 on CM5 chip.

In the next test the target is T5, murine CXCL10 (mouse, UniProt P17515 22-98).
T5 construct: also called mCXCL10
T5 sequence: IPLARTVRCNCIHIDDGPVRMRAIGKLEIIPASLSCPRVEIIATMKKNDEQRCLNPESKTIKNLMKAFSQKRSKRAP
The test is described as follows: SPR, R17 on CM5 chip.

Another test addresses T6, murine CXCL9 (mouse, UniProt P18340 22-126).
T6 construct: also called mCXCL9
T6 sequence: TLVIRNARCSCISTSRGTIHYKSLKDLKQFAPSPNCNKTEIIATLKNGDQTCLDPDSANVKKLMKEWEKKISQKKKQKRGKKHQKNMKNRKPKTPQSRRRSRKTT
The test is described as follows: SPR, R17 on CM5 chip.

In another test the target is T7, murine CXCL2 (mouse, UniProt P10889 28-100).
T7 construct: also called mCXCL2
T7 sequence: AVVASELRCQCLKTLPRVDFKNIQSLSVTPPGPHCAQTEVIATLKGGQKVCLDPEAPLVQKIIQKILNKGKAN
The test is described as follows: SPR, R17 on CM5 chip.

In a further test the target is T8, murine CXCL12 (mouse, UniProt P40224 22-89).
T8 construct: also called mCXCL12
T8 sequence (P40224 22-89 limits assumed): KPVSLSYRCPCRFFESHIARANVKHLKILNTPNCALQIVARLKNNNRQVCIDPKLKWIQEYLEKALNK
The test is described as follows: SPR, R17 on CM5 chip.

A further test deals with T9, murine CXCL1 (mouse, UniProt P12850 25-96).
T9 construct: also called mCXCL1
T9 sequence: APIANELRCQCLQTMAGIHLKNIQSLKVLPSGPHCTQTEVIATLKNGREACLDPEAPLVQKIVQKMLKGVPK
The experiment in a line: SPR, R17 on CM5 chip.

In another test the target is T10, murine IL-13 (mouse, UniProt P20109 21-131).
T10 construct: also called mIL-13
T10 sequence: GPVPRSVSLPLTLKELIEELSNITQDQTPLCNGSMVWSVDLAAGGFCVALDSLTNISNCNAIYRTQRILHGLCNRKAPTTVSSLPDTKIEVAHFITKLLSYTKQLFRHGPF
The experiment in a line: SPR, R17 on CM5 chip.

In the next test the target is T11, murine IL-12 (mouse, UniProt P43431 23-215; P43432 23-335).
T11 construct: also called mIL-12
T11 sequence 1: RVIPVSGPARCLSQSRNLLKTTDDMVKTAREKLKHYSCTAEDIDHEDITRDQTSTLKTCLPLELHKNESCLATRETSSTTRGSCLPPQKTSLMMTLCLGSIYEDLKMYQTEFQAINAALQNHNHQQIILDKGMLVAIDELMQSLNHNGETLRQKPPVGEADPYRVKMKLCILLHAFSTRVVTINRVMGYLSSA
T11 sequence 2: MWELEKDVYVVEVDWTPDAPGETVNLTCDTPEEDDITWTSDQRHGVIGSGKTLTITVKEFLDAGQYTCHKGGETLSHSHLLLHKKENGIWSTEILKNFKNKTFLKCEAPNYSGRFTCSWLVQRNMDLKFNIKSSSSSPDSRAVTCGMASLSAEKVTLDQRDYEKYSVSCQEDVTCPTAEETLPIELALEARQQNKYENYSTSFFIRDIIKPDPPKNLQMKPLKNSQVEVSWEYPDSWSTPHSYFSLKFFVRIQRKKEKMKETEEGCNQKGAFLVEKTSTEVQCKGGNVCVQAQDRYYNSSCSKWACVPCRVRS
The test is described as follows: SPR, R17 on CM5 chip.

In a further test the target is T12, murine IL-6 (mouse, UniProt P08505 25-211).
T12 construct: also called mIL-6
T12 sequence: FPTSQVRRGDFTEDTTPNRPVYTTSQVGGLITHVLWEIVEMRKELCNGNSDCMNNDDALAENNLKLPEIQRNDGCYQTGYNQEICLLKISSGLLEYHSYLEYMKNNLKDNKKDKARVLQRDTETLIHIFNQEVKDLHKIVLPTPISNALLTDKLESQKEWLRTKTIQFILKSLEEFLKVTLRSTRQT
The experiment in a line: SPR, R17 on CM5 chip.

A further test addresses T13, murine IL-17 (mouse, UniProt Q62386 26-158).
T13 construct: also called mIL-17
T13 sequence: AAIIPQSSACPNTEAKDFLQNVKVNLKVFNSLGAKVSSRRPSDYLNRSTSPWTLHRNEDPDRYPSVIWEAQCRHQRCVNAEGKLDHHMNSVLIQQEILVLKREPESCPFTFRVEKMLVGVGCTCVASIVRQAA
The test is described as follows: SPR, R17 on CM5 chip.

The next test has as its target T14, murine TNF-alpha (mouse, UniProt P06804 80-235).
T14 construct: also called mTNF-alpha; TNF-α
T14 sequence: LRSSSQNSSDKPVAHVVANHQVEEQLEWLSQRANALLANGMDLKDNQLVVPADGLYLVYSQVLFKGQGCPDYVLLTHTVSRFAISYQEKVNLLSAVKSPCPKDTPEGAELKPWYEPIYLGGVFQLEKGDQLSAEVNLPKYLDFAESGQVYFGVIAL
The test is described as follows: SPR, R17 on CM5 chip.

For test [1], the target named is CCL2 (species not given). The experiment in a line: SPR, R17 variant on CM5 chip; column kd x 10^-3 s-1.
The next test concerns the target T15, murine CCL5 (mouse, UniProt P30882 24-91).
T15 construct: also called mCCL5
The test is described as follows: SPR, R17 on CM5 chip; KD,eq from saturation binding, Scatchard analysis.

In the next test the target is T16, murine CCL8 (mouse, UniProt Q9Z121 24-97).
T16 construct: also called mCCL8
T16 sequence: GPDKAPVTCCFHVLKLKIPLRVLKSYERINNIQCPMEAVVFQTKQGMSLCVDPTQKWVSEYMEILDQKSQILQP
The test is described as above.

T1 sequence (P13500 24-99 limits assumed): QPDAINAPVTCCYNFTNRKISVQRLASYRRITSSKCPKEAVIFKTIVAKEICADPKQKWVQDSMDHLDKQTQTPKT
T15 sequence (P30882 24-91 limits assumed): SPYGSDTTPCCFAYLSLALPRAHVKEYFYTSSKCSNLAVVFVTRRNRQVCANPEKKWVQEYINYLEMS

B1: R17 chemokine decoy receptor of Rodent herpesvirus Peru (RHVP), wild type, C-terminal 8-His fusion (receptor)
chain: GPVGEPVASEINEASKVSSRLLTQDILFRKDRQATISLPIKLPVEDIITQTCDKITYGPLKFLDLLEKETAVLPLSTDITCPACLGRAVLVGKWECPAHVAVNESDLTVFGPNKEEHVPQFVTVQQPSDGKMQRLFFAKFLGTEESLAVLRVPGPDGHLCIQEALIHFKELSGAGVCSLWKANDSREEGLEMKQVDCLETTVLENQTCIATTLSKKIYHRLYCGERLMTGGQVSTRVLLTALGFYKRQPYTFHRVPKGMVYVHLIDSGSEDYMEYSECEEVTPGRYEDKQISYTFYTDLFQTADGEPVLASVWGTSGLKDSAYESCAFVIPTKGRRKLVPRRIMSKCYPFRLTYHPSTMTVRLDVRVEKHHGATDQGFVFLKMESGTYSEGREYYLDRVLWGEDSSTNNVLQ
notes: not shown: C-terminal 8-His tag
Regarding B1, in the test with human CCL2, the “complex half-life (t1/2)” value was 0.035 min. Further, in the test with human CCL3, the “apparent complex half-life (t1/2,app)” value is more than 16.7 min. Besides, the complex half-life with murine CCL24 was more than 10 min. The binding result with murine CCL21, in the test with murine CXCL10, in the test with murine CXCL9, with murine CXCL2, with murine CXCL12 and with murine CXCL1 was “no binding” in each case. For the same molecule, the binding result with murine IL-13, in the test with murine IL-12, with murine IL-6, with murine IL-17 and in the test with murine TNF-alpha was “no binding” throughout. In test [1], this molecule registered a koff of 0.02 s⁻¹. Further, the Kd with murine CCL5 was 0.1 nM; with murine CCL8, 80 nM.
